The values that follow come from patent US20230183338A1.

As a reminder, the Kd is the concentration at which binding is half-saturated.

The experiment deals with VEEV p62-E1 (Venezuelan equine encephalitis virus, TrD strain) (UniProt P09592). The experiment can be described thus: surface plasmon resonance (Biacore T200), […]. (In SPR one partner is held on a chip, and binding of the other changes the refractive index at the surface.)

“HRV-cleaved monovalent LDLRAD3(D1) (from UniProt A2AR95 18-70) (receptor)” yielded a Kd of 0.209 µM.
